The results in this text go back to patent US20160200789A1, “IL4 CONJUGATED TO ANTIBODIES AGAINST EXTRACELLULAR MATRIX COMPONENTS” (PHILOGEN S.P.A., priority 2013, published 2016).

The subject of data set [1] is CHS-induced ear inflammation in K14-VEGF-A mice. Put plainly: Contact hypersensitivity-induced ear inflammation in K14-VEGF-A mice. Type of data set: in vivo, mouse. The text has this: A delayed-type hypersensitivity reaction was induced in the ear skin of female FVB mice that overexpress VEGF-A in the epidermis under control of the human keratin 14 promoter as previously described (Detmar et al., 1998; Kunstfeld et al., 2004; Xia et al., 2003). Heterozygous VEGF-A transgenic mice with no pre-existing inflammatory lesions were sensitized by topical application of a 2% oxazolone (4-ethoxymethylene-2-phenyl-2-oxazoline-5-one; Sigma) solution in acetone/olive oil (4:1 vol/vol) to the shaved abdomen (50 μl) and each paw (5 μl). Five days after sensitization, the ears were challenged by topical application of 20 μl of a 1% oxazolone solution. Therapy was started on day 7 and repeated at day 9, 11 and 13. […] Ear thickness was measured every other day and at day 15, mice were sacrificed and ear draining lymph nodes were weighted. The timeline for this experiment is illustrated in FIG. 13A. Each treatment event is indicated by an arrow.

Data set [2] concerns A20 lymphoma. Put plainly: Therapy studies in A20 tumour-bearing mice. The settings on record: 90 μg i.v. every second day.
Text: Data represent mean tumour volumes (±SEM), n=5 mice per group. […] Data represent mean tumour volumes (±SEM), n=5 mice per group.
Differences in tumor volume, % ID/g and Tumor-to-blood ratio between therapeutic groups were compared using Graphpad Prism's repeated measures (mixed model) ANOVA analysis.
For this, as well as the other experiments described below, F9 teratocarcinoma (CRL-1720; ATCC, Molsheim Cedex, France), CT26 colon carcinoma (CRL-2638; ATCC, Molsheim Cedex, France) and A20 lymphoma (TIB-208; ATCC, Molsheim Cedex, France) were grown according to the supplier's protocol and tumour cells implanted subcutaneously in the flank using 25×10^6 cells (F9), 2×10^6 cells (CT26) or 8×10^6 cells (A20). F9 teratocarcinoma cells were implanted into 129/SvEv mice (Charles River, Sulzfeld, Germany), CT26 colon carcinoma cells were implanted into Balb/c mice (Elevage Janvier, Le Genest-St-Isle, France) and A20 lymphoma cells were implanted into Balb/c mice (Elevage Janvier, Le Genest-St-Isle, France). Mice were sacrificed when tumour volumes reached a maximum of 2000 mm^3.
The test system of data set [3] is imiquimod (IMQ)-induced ear inflammation in C57BL/6 mice. Put plainly: IMQ-induced inflammation model of psoriasis. The class given is in vivo, mouse. Here is the method: C57BL/6 mice (Charles River, Germany) were treated on each side of each ear with 5 mg Aldara cream (containing 0.25 mg Imiquimod). The treatment schedule is illustrated in FIG. 11A. The Aldara cream was applied every day for 5 days (on day 1, 2, 3, 4 5 and […]: each application is illustrated by an asterisk in FIG. 11A). Ear thickness was measured with a caliper before the application of the cream. […] Treatment was repeated on day 9 and 11 (each treatment event is illustrated by an arrow in FIG. 11A).

Data set [4] concerns the target T1, EDA domain of fibronectin (Homo sapiens, UniProt P02751).
T1 construct: surface plasmon analysis (BIAcore) on an EDA antigen-coated sensor chip
Put plainly: Surface plasmon analysis (BIAcore) on EDA antigen-coated sensor chip. The class given is binding. The text has this:
The fusion protein was expressed and purified to homogeneity as described for F8-IL4 above.
In general terms: Surface plasmon resonance follows binding to a sensor surface in real time, without labels.

Data set [5] relates to collagen induced arthritis in DBA/1J mice. Put plainly: Aggressive collagen induced arthritis model, F8-IL4 dose comparison (Example 3). Type of data set: in vivo. Here is the method: Animals showing signs of joint inflammation with a total score of 1 to 3 were included in the therapy experiments. When the joint inflammation was too high at day one (more than one paw, score>3) mice were not included in the therapy experiments. Experiments were performed under a project license granted by the Veterinaeramt des Kantons Zuerich, Switzerland (208/2010).
The dose for TNFR-Fc was determined by calculations from the human ENBREL dose and the approximate local TNF concentration compared with the bioactivity of the fusion protein.

For data set [6], the system named is A20 lymphoma. Put plainly: Biodistribution and ex vivo immunofluorescence in A20 tumour-bearing mice. The settings on record: after i.v. administration.
The nature of data set [7]: Solubility of the product (limit of dose escalation). The class given is physicochemical. The settings on record: doses above 90 μg could not be tested.
Data set [8] has as its system CTLL2 cells. Put plainly: CTLL2 cell proliferation bioactivity assay. The class given is cell-based. The settings on record: 24 h. Here is the method:
The biological activity of murine IL4 was determined by its ability to stimulate the proliferation of CTLL2 cells. […] After incubation at 37° C. for 24 h, cell proliferation was determined with Cell Titer Aqueous One Solution (Promega).

In data set [9] the test system is collagen induced arthritis in DBA/1J mice. Put plainly: Aggressive collagen induced arthritis model, targeted vs untargeted IL4 (Example 3a). The settings on record: 100 μg/injection i.v., days 1, 3 and 7. Type of data set: in vivo, mouse. Here is the method: Injections were administered on day 1, 3 and 7.
For data set [10], the system named is F9 teratocarcinoma. Put plainly: Ex vivo immunofluorescence of treated F9 tumours. The class given is in vivo, mouse. The settings on record: ex vivo immunofluorescence after i.v. administration. Here is the method: For ex vivo detection of the localization of the IL4-based immunocytokines and of tumour infiltrating cells after therapy, mice were injected three times with the appropriate proteins as for therapy experiments and sacrificed two days after the last injection. Tumours were excised, embedded in cryoembedding medium (Thermo Scientific) and cryostat sections (10 μm) were stained using the antibodies: Anti-IL4 antibody (eBioscience), CD45 (leukocytes, BD Biosciences), CD4 (CD4+Tcells, BioXCell), CD8 (CD8+Tcells, BioXCell), F4/80 (macrophages, Abcam), Asialo GM1 (NK cells, Wako Pure Chemical Industries), CD45R (B cells, eBioscience), Foxp3 (eBioscience), CD31 (Santa Cruz); and detected with AlexaFluor488 respectively AlexaFluor594 coupled secondary antibodies (Invitrogen). Slides were mounted with fluorescent mounting medium (Dako) and analyzed with an Axioskop2 mot plus microscope (Zeiss).

The test system of data set [11] is experimental autoimmune encephalomyelitis (EAE) in C57/BL6 mice. Put plainly: Experimental autoimmune encephalomyelitis (EAE) model of multiple sclerosis. Type of data set: in vivo, mouse. The source says:
36 C57/BL6 mice were immunized with MOG35-55/CFA and pertussis toxin by injection as reported in McCarthy et al. (2012) to induce experimental autoimmune encephalomyelitis (EAE), a model for multiple sclerosis (MS). Mice were scored daily and using a grading system from 0 to 5 reflecting progressive paralysis (McCarthy et al., 2012). Any mouse with newly developed clinical signs of EAE was assigned to one of three groups in a balanced manner. Treatment started on the day of assignment to a group (first day after EAE onset). Mice in the F8-murine IL4 treatment group (SEQ ID NO: 21) (indicated by circles in FIG. 18) received a total of three i.v. injection of 200 μg each (200 μl of a 1 mg/ml solution), every third day (see black arrows in FIG. 18). Mice in the Fingolimod (FTY720) treatment group (indicated by squares in FIG. 18) received daily oral gavage at a dose of 1 mg/kg (see open arrows in FIG. 18).

T1 sequence (P02751 1727-1814 limits assumed): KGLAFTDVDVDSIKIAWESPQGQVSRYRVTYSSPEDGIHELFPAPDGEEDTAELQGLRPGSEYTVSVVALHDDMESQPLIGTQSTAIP

B1: F8-IL4: antibody F8 (anti-EDA of fibronectin) in diabody format fused at the C-terminus to murine interleukin 4 via 15 amino acid linker (protein)
chain: EVQLLESGGGLVQPGGSLRLSCAASGFTFSLFTMSWVRQAPGKGLEWVSAISGSGGSTYYADSVKGRFTISRDNSKNTLYLQMNSLRAEDTAVYYCAKSTHLYLFDYWGQGTLVTVSSGGSGGEIVLTQSPGTLSLSPGERATLSCRASQSVSMPFLAWYQQKPGQAPRLLIYGASSRATGIPDRFSGSGSGTDFTLTISRLEPEDFAVYYCQQMRGRPPTFGQGTKVEIKSSSSGSSSSGSSSSGHIHGCDKNHLREIIGILNEVTGEGTPCTEMDVPNVLTATKNTTESELVCRASKVLRIFYLKHGKTPCLKKNSSVLMELQRLFRAFRCLDSSISCTMNESKSTSLKDFLESLKSIMQMDYS
modifications: Synthetic sequence Amino acid sequence of F8 -(murine) IL4 of PCT/EP2014/053998
notes: antibody F8 (anti-EDA of fibronectin) in diabody format fused at the C-terminus to murine interleukin 4 via 15 amino acid linker
For the molecule B1, the ear thickness result is “significantly reduced ear thickness” in [1] (100 μg i.v. days 7, 9, 11, 13, vs PBS or KSF-IL4) and “significantly reduced ear thickness” in data set [3] (100 μg i.v. days 7, 9, 11, day 13, vs PBS or KSF-IL4). Further, the “ear draining lymph nodes (weight)” value in data set [1] (day 15) and in data set [3] (day 13) was “smaller” in each case. Further, the “decrease in ear thickness from treatment initiation (day 7)” value was “significantly more than treatment with either FSF-IL4, F8-SIP or PBS” in [1] (mouse, in vivo) and “significantly more than in mice receiving either PBS, F8-SIP or KSF-IL4 treatment” in [3] (mouse, in vivo). The tumour growth retardation result in data set [2] is recorded as “superior tumour growth retardation compared to KSF-IL4”. In data set [4], the “affinity for the cognate antigen” value is listed as “retained a high-affinity for the cognate antigen”. Also, in data set [5] (100 μg vs TNFR-Fc 30 μg), the “reduction in paw swelling compared with murine version of ENBREL” value was “at least equivalent”. Besides, in data set [5] (100 μg/injection), the tolerability result was “well tolerated”. In addition, in data set [5] (100 μg/injection), the weight change entry was “lost less weight than mice receiving only the buffer vehicle (PBS)”. Moreover, the “disease-modulating effect (arthritic score)” value in [5] (100 μg/injection i.v., days 1, 4 and 7) was “at least as potent as the murine version of Enbrel (TNFR-Fc)”. In addition, the paw swelling result in data set [5] (100 μg, vs buffer vehicle or low dose) is “less severe paw swelling than mice receiving only the buffer vehicle or low amounts of F8-IL4”. Also, the “accumulation around tumour neo-vascular structures” value in [6] is “preferential accumulation”. Moreover, the solubility entry in data set [7] is given as “insufficient solubility”. The same molecule showed an EC50 in [8] (CTLL2 cells, 20000 cells/well) of 0.023 nM. Also, the biological cytokine activity result in data set [8] (CTLL2 proliferation) is on record as “comparable to that of recombinant murine IL4”. In addition, the “activity in reducing arthritic score and paw swelling compared to KSF-IL4” value in data set [9] is listed as “statistically significant superior activity”. Moreover, in data set [10], the “accumulation on CD31-positive tumour neo-vascular structures” value is “preferential accumulation”. Further, the “EAE severity compared with fingolimod” value in [11] (fingolimod 1 mg/kg daily oral gavage) is recorded as “not significantly different”. Besides, in [11] (three i.v. injections of 200 μg, every third day), the “EAE severity compared with PBS” value is on record as “significantly reduced EAE severity”.

Usually EC50 stands for the concentration needed to bring the measured effect to its halfway point. Low values mean a more potent agent, high ones a less potent agent.
